T1: SNTB1, Q13884
T1 sequence (Q13884 107-205, limits assumed, looked up): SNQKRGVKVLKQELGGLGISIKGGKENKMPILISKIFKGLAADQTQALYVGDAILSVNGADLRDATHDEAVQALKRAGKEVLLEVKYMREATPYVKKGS

T2: MPP2, Q14168
T2 sequence (Q14168 180-250, limits assumed, looked up): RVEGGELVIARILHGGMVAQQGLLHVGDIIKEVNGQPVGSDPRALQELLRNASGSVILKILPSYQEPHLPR

T3: GRIP1_7, Q9Y3R0
T3 sequence (Q9Y3R0 999-1096, limits assumed, looked up): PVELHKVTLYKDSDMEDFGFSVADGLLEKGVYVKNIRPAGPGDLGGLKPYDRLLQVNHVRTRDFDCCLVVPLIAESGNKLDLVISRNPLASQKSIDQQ

T4: MPP6, Q9NZW5
T4 sequence (Q9NZW5 125-219, limits assumed, looked up): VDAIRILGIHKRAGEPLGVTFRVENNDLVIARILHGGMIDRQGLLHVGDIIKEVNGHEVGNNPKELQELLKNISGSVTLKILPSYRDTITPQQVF

T5: SNTA1, Q13424
T5 sequence (Q13424 82-180, limits assumed, looked up): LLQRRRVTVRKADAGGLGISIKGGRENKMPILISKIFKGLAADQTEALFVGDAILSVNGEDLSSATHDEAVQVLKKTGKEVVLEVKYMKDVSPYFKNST

T6: FRMPD1, Q5SYB0
T6 sequence (Q5SYB0 52-145, limits assumed, looked up): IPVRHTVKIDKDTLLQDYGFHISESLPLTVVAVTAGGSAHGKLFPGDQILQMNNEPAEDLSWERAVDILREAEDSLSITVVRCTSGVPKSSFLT

T7: HTRA3, P83110
T7 sequence (P83110 354-453, limits assumed, looked up): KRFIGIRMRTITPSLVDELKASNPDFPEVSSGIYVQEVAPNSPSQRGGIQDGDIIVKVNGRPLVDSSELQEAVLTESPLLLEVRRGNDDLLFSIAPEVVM

T8: TX1BP3, O14907
T8 sequence (O14907 10-122, limits assumed, looked up): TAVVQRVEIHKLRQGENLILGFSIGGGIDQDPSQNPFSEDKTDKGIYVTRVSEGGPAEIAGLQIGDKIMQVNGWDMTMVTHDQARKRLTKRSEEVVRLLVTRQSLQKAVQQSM

T9: TJP3_3, O95049
T9 sequence (O95049 375-456, limits assumed, looked up): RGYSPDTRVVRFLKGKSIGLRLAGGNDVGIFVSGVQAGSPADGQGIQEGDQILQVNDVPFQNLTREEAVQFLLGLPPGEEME

T10: PDZRN3_1, Q9UPQ7
T10 sequence (Q9UPQ7 244-349, limits assumed, looked up): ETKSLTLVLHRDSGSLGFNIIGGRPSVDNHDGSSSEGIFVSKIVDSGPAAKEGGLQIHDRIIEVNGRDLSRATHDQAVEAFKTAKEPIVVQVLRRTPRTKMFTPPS

T11: DFNB31_2, Q9P202
T11 sequence (Q9P202 274-371, limits assumed, looked up): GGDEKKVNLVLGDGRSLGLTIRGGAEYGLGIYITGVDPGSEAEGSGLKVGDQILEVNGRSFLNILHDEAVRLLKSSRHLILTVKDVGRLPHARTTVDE


Tests used:
Test in all cases: holdup assay
Set-up in all cases: key: below the threshold = too weak to quantify, mostly under pKd 3.1 to 4
Conditions in all cases: plain residues with an end cap or a label only (N-terminal biotin on a linker: ahx)
SNTB1, Q13884 = target: T1, SNTB1, Q13884
GRIP2_6, Q9C0E4 = target: GRIP2_6, Q9C0E4
Sequence of GRIP2_6, Q9C0E4 (Q9C0E4 648-740): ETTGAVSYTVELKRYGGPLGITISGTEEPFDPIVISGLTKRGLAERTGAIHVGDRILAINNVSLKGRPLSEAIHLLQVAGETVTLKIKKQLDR

GRID2IP_1, A4D2P6 = target: GRID2IP_1, A4D2P6
Sequence of GRID2IP_1, A4D2P6 (A4D2P6 1-87): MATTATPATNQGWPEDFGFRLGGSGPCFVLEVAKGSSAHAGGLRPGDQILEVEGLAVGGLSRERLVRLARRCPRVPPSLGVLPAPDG

SCRIB_2, Q14160 = target: SCRIB_2, Q14160
Sequence of SCRIB_2, Q14160 (Q14160 857-960): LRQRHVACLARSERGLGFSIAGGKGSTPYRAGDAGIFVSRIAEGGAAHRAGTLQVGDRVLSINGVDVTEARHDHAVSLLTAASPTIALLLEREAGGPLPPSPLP

LNX1_1, Q8TBB1 = target: LNX1_1, Q8TBB1
Sequence of LNX1_1, Q8TBB1 (Q8TBB1 261-371): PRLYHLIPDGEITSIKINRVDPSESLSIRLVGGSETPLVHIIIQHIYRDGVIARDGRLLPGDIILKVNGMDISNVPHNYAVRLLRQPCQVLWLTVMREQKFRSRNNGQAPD

MAST2, Q6P0Q8 = target: MAST2, Q6P0Q8
Sequence of MAST2, Q6P0Q8 (Q6P0Q8 1099-1202): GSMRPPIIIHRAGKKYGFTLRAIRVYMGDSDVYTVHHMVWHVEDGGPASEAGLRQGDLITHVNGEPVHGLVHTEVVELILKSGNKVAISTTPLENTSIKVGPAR

MPP2, Q14168 = target: T2, MPP2, Q14168
GRIP1_7, Q9Y3R0 = target: T3, GRIP1_7, Q9Y3R0
ARHGEF12, Q9NZN5-2 = target: ARHGEF12, Q9NZN5-2
Sequence of ARHGEF12, Q9NZN5-2 (Q9NZN5 other isoform, or with tags, fused parts or gaps): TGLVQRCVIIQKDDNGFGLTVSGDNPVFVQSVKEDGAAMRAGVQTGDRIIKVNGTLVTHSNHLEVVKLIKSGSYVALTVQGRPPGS

MAGI2_2, Q86UL8 = target: MAGI2_2, Q86UL8
Sequence of MAGI2_2, Q86UL8 (Q86UL8 410-522): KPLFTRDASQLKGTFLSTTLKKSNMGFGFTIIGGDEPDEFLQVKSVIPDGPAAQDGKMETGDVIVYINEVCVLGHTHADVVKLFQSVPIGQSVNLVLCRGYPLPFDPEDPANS

SCRIB_3, Q14160 = target: SCRIB_3, Q14160
Sequence of SCRIB_3, Q14160 (Q14160 999-1103): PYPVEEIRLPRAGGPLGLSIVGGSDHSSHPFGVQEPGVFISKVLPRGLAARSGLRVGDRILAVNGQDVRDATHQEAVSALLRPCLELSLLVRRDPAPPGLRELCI

MPP6, Q9NZW5 = target: T4, MPP6, Q9NZW5
GIPC2, Q8TF65 = target: GIPC2, Q8TF65
Sequence of GIPC2, Q8TF65 (Q8TF65 112-203): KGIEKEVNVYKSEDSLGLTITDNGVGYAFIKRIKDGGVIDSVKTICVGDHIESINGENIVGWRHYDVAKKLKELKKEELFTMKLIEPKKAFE

SNTA1, Q13424 = target: T5, SNTA1, Q13424
GRID2IP_2, A4D2P6 = target: GRID2IP_2, A4D2P6
Sequence of GRID2IP_2, A4D2P6 (A4D2P6 272-370): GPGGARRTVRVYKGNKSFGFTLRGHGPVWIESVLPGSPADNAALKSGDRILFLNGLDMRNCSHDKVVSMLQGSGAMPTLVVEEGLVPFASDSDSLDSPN

GRIP2_7, Q9C0E4 = target: GRIP2_7, Q9C0E4
Sequence of GRIP2_7, Q9C0E4 (Q9C0E4 934-1023): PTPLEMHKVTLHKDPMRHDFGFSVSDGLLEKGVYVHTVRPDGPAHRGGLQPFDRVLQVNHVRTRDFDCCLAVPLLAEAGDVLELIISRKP

DLG4_3, P78352 = target: DLG4_3, P78352
Sequence of DLG4_3, P78352 (P78352 306-403): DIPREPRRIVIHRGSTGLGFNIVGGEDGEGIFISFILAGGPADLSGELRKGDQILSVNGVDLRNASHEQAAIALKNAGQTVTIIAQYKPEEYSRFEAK

FRMPD1, Q5SYB0 = target: T6, FRMPD1, Q5SYB0
HTRA3, P83110 = target: T7, HTRA3, P83110
TX1BP3, O14907 = target: T8, TX1BP3, O14907
GRIP2_5, Q9C0E4 = target: GRIP2_5, Q9C0E4
Sequence of GRIP2_5, Q9C0E4 (Q9C0E4 544-642): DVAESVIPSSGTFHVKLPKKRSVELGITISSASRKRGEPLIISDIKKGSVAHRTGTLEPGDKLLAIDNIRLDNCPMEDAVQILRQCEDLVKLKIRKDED

TJP3_3, O95049 = target: T9, TJP3_3, O95049
SCRIB_1, Q14160 = target: SCRIB_1, Q14160
Sequence of SCRIB_1, Q14160 (Q14160 718-814): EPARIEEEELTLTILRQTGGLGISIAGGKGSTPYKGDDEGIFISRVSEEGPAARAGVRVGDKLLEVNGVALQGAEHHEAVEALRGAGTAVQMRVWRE

LDB3, O75112 = target: LDB3, O75112
Sequence of LDB3, O75112 (O75112 1-94): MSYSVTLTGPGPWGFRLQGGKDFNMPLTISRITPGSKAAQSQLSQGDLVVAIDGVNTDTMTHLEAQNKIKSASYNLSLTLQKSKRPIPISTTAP

DLG4_1, P78352 = target: DLG4_1, P78352
Sequence of DLG4_1, P78352 (P78352 62-152): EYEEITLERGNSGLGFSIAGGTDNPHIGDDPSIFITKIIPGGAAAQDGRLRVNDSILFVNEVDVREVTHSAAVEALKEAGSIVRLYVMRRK

PDZRN3_1, Q9UPQ7 = target: T10, PDZRN3_1, Q9UPQ7
DFNB31_2, Q9P202 = target: T11, DFNB31_2, Q9P202

pKd (SNTB1, Q13884)	pKd (GRIP2_6, Q9C0E4)	pKd (GRID2IP_1, A4D2P6)	pKd (SCRIB_2, Q14160)	pKd (LNX1_1, Q8TBB1)	pKd (MAST2, Q6P0Q8)	pKd (MPP2, Q14168)	pKd (GRIP1_7, Q9Y3R0)	pKd (ARHGEF12, Q9NZN5-2)	pKd (MAGI2_2, Q86UL8)	pKd (SCRIB_3, Q14160)	pKd (MPP6, Q9NZW5)	pKd (GIPC2, Q8TF65)	pKd (SNTA1, Q13424)	pKd (GRID2IP_2, A4D2P6)	pKd (GRIP2_7, Q9C0E4)	pKd (DLG4_3, P78352)	pKd (FRMPD1, Q5SYB0)	pKd (HTRA3, P83110)	pKd (TX1BP3, O14907)	Binder	also measured
below the threshold	below the threshold	below the threshold	below the threshold	below the threshold	4.94	below the threshold	below the threshold	below the threshold	below the threshold	4.49	below the threshold	below the threshold	below the threshold	below the threshold	below the threshold	below the threshold	below the threshold	below the threshold	below the threshold	PKMKLNETSF [SHKBP1, Q8TBC3]	pKd (GRIP2_5, Q9C0E4): below the threshold; pKd (TJP3_3, O95049): below the threshold; pKd (SCRIB_1, Q14160): 4.31; pKd (LDB3, O75112): below the threshold; pKd (DLG4_1, P78352): below the threshold; pKd (PDZRN3_1, Q9UPQ7): below the threshold; pKd (DFNB31_2, Q9P202): below the threshold
3.72	below the threshold	below the threshold	3.69	3.8	4.46	below the threshold	below the threshold	4.25	3.95	3.64	below the threshold	below the threshold	3.76	3.57	below the threshold	below the threshold	below the threshold	below the threshold	below the threshold	YNSFLSVTTV [PDZRN3, Q9UPQ7]	pKd (GRIP2_5, Q9C0E4): below the threshold; pKd (TJP3_3, O95049): below the threshold; pKd (SCRIB_1, Q14160): 3.62; pKd (LDB3, O75112): below the threshold; pKd (DLG4_1, P78352): 3.84; pKd (PDZRN3_1, Q9UPQ7): below the threshold; pKd (DFNB31_2, Q9P202): below the threshold

Reference: PMC9482650, “Quantitative fragmentomics allow affinity mapping of interactomes” (Nature Communications, 2022)
